# B1: 3x consensus ETS oligonucleotide (biotinylated) (dsDNA)
# DNA 1: ACCGGAAGTACCGGAAGTACCGGAAGT
# DNA 2: ACTTCCGGTACTTCCGGTACTTCCGGT
# Biological target: ETV6 full-length (UniProt P41212 1-452)
# Test: pull-down; fragment Fr18 (enhanced binding); Pull-down: 4 C, 30 min, 1 ug poly(dI/dC), 4 mM spermidine; wash in binding buffer 50 mM KCl, 10 mM HEPES pH 7.6, 5 mM MgCl2, 10 mM Tris pH 8, 0.05 mM EDTA, 0.1% Triton X-100, 20% glycerol. SPR: 25 mM HEPES pH 7.5, 100 mM NaCl, 1 mM EDTA, 1 mM beta-mercaptoethanol; NMR same buffer (296 K)
# Conditions: protein: ivt; tags: FLAG; only one strand given
# Chain of ETV6 full-length (P41212 whole entry, the tested form may be a part): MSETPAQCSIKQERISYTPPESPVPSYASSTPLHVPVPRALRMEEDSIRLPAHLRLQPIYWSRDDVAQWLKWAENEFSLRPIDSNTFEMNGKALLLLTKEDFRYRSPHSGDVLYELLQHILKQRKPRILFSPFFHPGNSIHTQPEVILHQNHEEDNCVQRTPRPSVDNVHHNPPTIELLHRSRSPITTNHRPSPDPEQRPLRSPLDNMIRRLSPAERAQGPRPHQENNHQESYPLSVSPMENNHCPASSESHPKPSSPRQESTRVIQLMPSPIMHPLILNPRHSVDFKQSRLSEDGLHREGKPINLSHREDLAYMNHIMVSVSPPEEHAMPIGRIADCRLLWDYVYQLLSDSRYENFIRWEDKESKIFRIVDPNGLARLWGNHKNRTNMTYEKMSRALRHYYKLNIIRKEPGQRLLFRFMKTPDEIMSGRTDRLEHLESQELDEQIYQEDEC
binder,measurement,value
B1,binding result,binds
